According to publication PMC11616081, “Structural basis of archaeal FttA-dependent transcription termination” (Nature, 2024):

B1: Tko FttA(H255A/H591A) (enzyme, Thermococcus kodakarensis)
chain: MIRRETFVDDILKEIREIIVQMVPREAGITDVEFEGPELVIYVKNPEAMMKDGELIKNLAKVLKKRISVRPDPDILLPPEKAEELIKQLVPPEAEITNISFDPSVGEVLIEARKPGLVIGKNGETLRLITQKVHWAPRVVRTPPIQSQTIYSIRSILQTESKDRRKFLRQVGRNIYRKSEYKSRWIRITGLGGFREVGRSALLVQTDESYVLVDFGVNIAALKDPTKAYPHFDAPEFRYVLDEGLLDAIIITHAALDHSGMLPYLFRYKLFDGPIYTTPPTRDLMTLLQQDFIEIQHMNGVEPLYRPKDIKEVIKHTITLDYGEVRDIAPDIRLTLHNAGHILGSSIVHLHIGNGLHNIAITGDFKFIPTRLFEPAVSRFPRLETLVMESTYGGSNDYQMPREEAEKRLIEVIHQTLKRGGKVLIPAMAVGRAQEIMMVLEEYARVGGIEVPIYLDGMIWEATAIHTAYPEYLSKHIREQIFHEGYNPFLNPIFKSVANSRERQDIIDSGEPAIIIATSGMLVGGPSVEYFKQLAPDPKNSIIFVSYQAEGTLGRQVQRGLREIPIVGEDGRTEVINVNMEVHTIDGFSGAADRRELMSYVARVRPRPERIITVHGEAHKCLDLSSSIHKKFGISTRAPNNLDAIRLK
notes: FttA (aCPSF, aCPSF1), Thermococcus kodakarensis; domains KH1 6-75, KH2 76-144, MβLa 198-428, βCASP 433-557, MβLb 576-639; residues 1-3 of FttA^prox not fitted in the map; Dimer in the structure (protomers FttA^prox and FttA^dist); also called FttA^prox; FttA^dist
B2: Tko Spt4 (natural protein, Thermococcus kodakarensis)
chain: MAKERACRHCHYITTEDRCPVCGSRDLSDDWFDLVIVLDVESRIAKKLRESIPEAAKVPGKYAIRVR
notes: Spt4, Thermococcus kodakarensis; residues 1-3 not fitted in the map
B3: Tko Spt5 (natural protein, Thermococcus kodakarensis)
chain: MAEGKIFTVSVTVGQETTTANLIYSKAKTYNLPLYAILSPSKVKGYIFIEAPNKSAVEEAIRGIRHAKRVLPGEIPFSEIEHFLEEKPAVSGFEPGDIVELIAGPFKGEKAKVVRVDESKDEIVVELVSSVVPIPVTVRGEYVRLISKRQKE
notes: Spt5, Thermococcus kodakarensis; NGN domain and KOW domain; residues 1-3 not fitted in the map; Used as Spt4/5 (Spt4-Spt5 complex) in the biochemical assays; also called NusG/Spt5

Experiments:
Assay in all cases: cryo-EM structure; 4 μM Tko RNAP, 8 μM Spt4, 8 μM Spt5 and 5 μM nucleic acid scaffold (TEC[44] or TEC[52]) in 20 mM HEPES-NaOH pH 7.5, 30 mM KCl, 10 mM magnesium acetate, 1 mM dithiothreitol, 10 min at 22 °C; then FttA(H255A/H591A) added, 10 min at 22 °C and 5 min at 42 °C; CHAPSO added before freezing; single-particle reconstruction at 2.5 Å (TEC[44]) and 2.2 Å (TEC[52])
[1] = target: the molecule itself
Tko Spt5 = target: B3; settings: both partners purified
Tko FttA(H255A/H591A) = target: B1; settings: both partners purified

Binder: B1
stoichiometry N [1]: 2

Binder: B2
binding result (Tko Spt5): binds

Binder: B3
binding result (Tko FttA(H255A/H591A)): binds
